The source of these data is patent publication US20180237497A1 (CANCER RESEARCH TECHNOLOGY, published 2018).

Where a chain is given by its changes, count along the chain named. Numbers in names are those of the source.

For assay [1], the target named is T1, human IGF2^1-67 (mature insulin-like growth factor 2) (human, UniProt P01344 25-91, biotinylated (site not stated) where immobilised on the chip (Tables 1-4)).
T1 construct: mature; also called mature IGF2; biotinylated IGF2
Briefly: SPR kinetic, biotin-IGF2 on chip. The method, then: (§1) Final kinetic analysis of mutants by SPR was conducted using a Biacore T200 biosensor at 25° C. in either HBS-EP (10 mM HEPES pH 7.4, 150 mM NaCl, 3 mM EDTA, and 0.005% (v/v) surfactant P20) or MES-EP (20 mM MES pH 6.5, 150 mM NaCl, 3 mM EDTA, and 0.005% (v/v) surfactant P20) at a flow-rate of 40 μL min⁻¹. […] For the analysis of the Fc-domain 11^AB5 interaction, approximately 50 RU of a biotinylated IGF2:biotinylated ubiquitin mixture (1:8 proportion) was immobilized on the CM5-streptavidin chip. This interaction was also analysed by immobilizing the Fc-domain 11^AB5 and Fc-domain 11^AB5-RHH (or Fc-domain 11^I1572A as control) by Human Antibody Capture (monoclonal mouse anti-human IgG antibody immobilised on a CM5 chip by amine coupling, GE Healthcare) with and without human IgG1 Fc fragment (Bethyl Laboratories, UK) in the control flow cell. […] T200 BiaEvaluation software (GE Healthcare) was used to fit the resulting curves according to a 1:1 binding model. Steady state affinities were determined using the kinetic data, taking the response average at 5 seconds before injection end and for 5 seconds average. Thermodynamic data was performed across the temperature range of 10° C. to 30° C., van't Hoff and Erying plots generated and ΔH, −TΔS and ΔG values determined as previously described.
(In general: SPR reads the build-up and loss of mass on a sensor chip optically.)

In assay [2] the target is T1, human IGF2^1-67 (mature insulin-like …). The assay is described as follows: SPR steady state, biotin-IGF2 on chip, pH 7.4.
Source text: (§2) Surface plasmon resonance (SPR) binding analysis of recombinant M6P/IGF2R domain 11 mutants interaction with IGF2. Kon indicates association (on) rate; koff, dissociation (off) rate; RU, response units. Binding to IGF2 assessed with BIAcore T200 using purified biotinylated IGF2 and IGF1 on a streptavidin biosensor chip. Recombinant proteins were expressed either in E. coli and/or P. pastoris. All the mutants in the FG and CD loops are on the domain 11^AB5 background for the AB loop unless otherwise stated. All experiments were carried out at 25° C. in HBS-EP buffer (pH 7.4), were repeated 2-5 times on two independent BIAcore chips. nd=not determined. Data for KD expressed as mean of each experiment, and means of kon and koff are shown.
as §1, with “average.” for “average. Thermodynamic data was performed across the temperature range of 10° C. to 30° C., van't Hoff and Erying plots generated and ΔH, −TΔS and ΔG values determined as previously described.”

The target is the same in assay [3]. Briefly: SPR kinetic, biotin-IGF2 on chip, pH 6.5. How it is done:
Measurements were carried out at 25° C. in MES-EP buffer, 20 mM MES pH 6.5, 150 mM NaCl, 3 mM EDTA, and 0.005% (v/v) surfactant P20). Data for KD expressed as mean of each experiment, and means of kon and koff are shown.
as §1

Assay [4] has the same target. Briefly: SPR steady state, biotin-IGF2 on chip. How it is done:
as §1

For assay [5] the target is unchanged. Briefly: SPR kinetic, biotin-IGF2 on chip, pH 7.4.
Source text: as §2
as §1, with “average.” for “average. Thermodynamic data was performed across the temperature range of 10° C. to 30° C., van't Hoff and Erying plots generated and ΔH, −TΔS and ΔG values determined as previously described.”

The target is the same in assay [6]. Briefly: SPR.
Source text: as §2
as §1, with “model.” for “model. Steady state affinities were determined using the kinetic data, taking the response average at 5 seconds before injection end and for 5 seconds average. Thermodynamic data was performed across the temperature range of 10° C. to 30° C., van't Hoff and Erying plots generated and ΔH, −TΔS and ΔG values determined as previously described.”

Assay [7] has the same target. Briefly: SPR kinetic, biotin-IGF2 on chip, pH 7.4. The method, then:
as §1
The source holds these as a separate data set.

For assay [8] the target is unchanged. Briefly: SPR steady state, biotin-IGF2 on chip, pH 7.4. How it is done:
as §1
The source holds these as a separate data set.

The next assay deals with T2, pro-IGF2^1-156 (UniProt P01344 25-180).
T2 construct: range 1-156
The assay is described as follows: SPR kinetic, Fc fusion captured by anti-human IgG, pH 7.4. The method, then:
(§3) SPR analysis of the interaction of recombinant IGF1 and IGF2 forms with Fc-domain 11 proteins immobilised by antibody capture (CM5 chip containing monoclonal mouse anti-human IgG antibody immobilised by amine coupling). Measurements were carried out at 25° C. in HBS-EP buffer (pH 7.4).
as §1

For the next assay, the target named is pro-IGF2^1-104 (UniProt P01344 25-128). The description is as above. The method, then: as §3, §1
pro-IGF2^1-104, sequence (P01344 25-128 limits assumed): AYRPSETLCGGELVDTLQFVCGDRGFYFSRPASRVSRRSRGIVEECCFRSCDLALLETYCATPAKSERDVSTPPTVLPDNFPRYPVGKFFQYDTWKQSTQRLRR

T2 sequence (P01344 25-180 limits assumed): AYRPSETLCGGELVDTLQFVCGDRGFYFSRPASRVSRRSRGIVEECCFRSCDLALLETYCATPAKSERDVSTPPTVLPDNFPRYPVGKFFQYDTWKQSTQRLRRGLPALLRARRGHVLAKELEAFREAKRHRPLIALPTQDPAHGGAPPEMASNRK
T1 sequence (P01344 25-91): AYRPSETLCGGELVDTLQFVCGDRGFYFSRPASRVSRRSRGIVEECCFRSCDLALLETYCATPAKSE

B1: IGF2R domain 11^WT (receptor)
chain: MKSNEHDDCQVTNPSTGHLFDLSSLSGRAGFTAAYSEKGLVYMSICGENENCPPGVGACFGQTRISVGKANKRLRYVDQVLQLVYKDGSPCPSKSGLSYKSVISFVCRPEAGPTNRPMLISLDKQTCTLFFSWHTPLACEQATECSV
notes: Soluble His6-tagged domain 11 from P. pastoris and/or E. coli; also called wild-type domain 11
For B1, the Kd (in general, the free concentration of one partner at which half of the binding sites on the other are occupied at equilibrium, for simple one-to-one binding) turned out to be 46 nM in assay [1]; 64 nM in [2]; 35.1 nM in [3]; 64 nM in [4]; 46 nM in [5]. Besides, the off-rate constant (koff) – broadly, a measure of how fast the partners let go of each other – in [1] is 0.23 s⁻¹; in assay [3] it was 0.144 s⁻¹; in assay [5], 0.23 s⁻¹. Further, the results for the kon in [1], in [3] and in assay [5] were 5e+06 M⁻¹ s⁻¹, 2.68e+06 M⁻¹ s⁻¹ and 5e+06 M⁻¹ s⁻¹, respectively.

B2: domain 11^WT + 23D (HI-HFQS) (receptor)
chain: B1 chain with D123H, K124F, T126S
notes: See m5; Protein quality poor based on absorption spectra
With B2, in assay [1], the affinity, expressed as Kd, was 176 nM; the koff was 0.065 s⁻¹; the kon (as a rule, the second-order rate constant of association) amounted to 250000 M⁻¹ s⁻¹. This molecule also returned a dissociation constant (Kd) in [4] of 220 nM.

B3: domain 11^WT + 27G (HI-NMAL) (receptor)
chain: B1 chain with D123N, K124M, Q125A, T126L
notes: See m5; Protein quality poor
In assay [1], B3 came in with a Kd of 195 nM, a koff of 0.25 s⁻¹ and a kon of 2e+06 M⁻¹ s⁻¹. This molecule also returned a Kd in [4] of 194 nM.

B4: domain 11^WT + 312G (HI-VKLM) (receptor)
chain: B1 chain with D123V, Q125L, T126M
notes: See m5; Protein quality poor
In [1], B4 came in with a Kd of 119 nM, an off-rate constant (koff) of 0.15 s⁻¹ and a kon of 1.07e+06 M⁻¹ s⁻¹. For the same molecule, binding in assay [4] was put at a Kd of 135 nM.

B5: domain 11^AB5 S1602Q (receptor)
chain: B1 chain with S36A, E37K, K38G, G39W, L40G, S95Q
notes: See m5
For the molecule B5, the Kd in assay [2] was 5.11 nM. Further, in assay [6], the “fold improvement of affinity” value is ≤ 2 fold. In [5], this molecule registered a Kd of 3.61 nM, a koff of 0.0191 s⁻¹ and a kon of 5.88e+06 M⁻¹ s⁻¹.

B6: domain 11^AB5 + 51F (HI-NRQS) (receptor)
chain: B1 chain with S36A, E37K, K38G, G39W, L40G, D123N, K124R, T126S
notes: See m5; Protein quality poor
On to B6, for which, in assay [1], the affinity, expressed as Kd, was 13.5 nM; the koff came out at 0.1 s⁻¹; the kon worked out at 7.4e+06 M⁻¹ s⁻¹. Further, in assay [4], binding was put at a Kd of 6.94 nM.

B7: domain 11^AB5 K1601R (receptor)
chain: B1 chain with S36A, E37K, K38G, G39W, L40G, K94R
notes: See m5
With B7, in assay [2], the Kd was determined as 5.78 nM. For the same molecule, the “fold improvement of affinity” value in assay [6] was ≤ 2 fold. In assay [5], this molecule came in with a Kd of 4.75 nM, a koff of 0.0251 s⁻¹ and a kon of 5.28e+06 M⁻¹ s⁻¹.

B8: domain 11^AB5 W1546F (receptor)
chain: B1 chain with S36A, E37K, K38G, G39F, L40G
notes: See m5
Turning to B8, the Kd in assay [2] was 5 nM. Besides, the “fold reduction of koff” value in assay [6] was 2 fold. In assay [5], the dissociation constant Kd worked out at 4.35 nM, the koff amounted to 0.018 s⁻¹ and the kon was 4.5e+06 M⁻¹ s⁻¹.

B9: domain 11^WT + 26C (HI-DMQT) (receptor)
chain: B1 chain with K124M
notes: See m5; Protein quality poor
For B9, in [1], the equilibrium dissociation constant (Kd) was 130 nM, the koff came out at 0.24 s⁻¹ and the kon worked out at 1.89e+06 M⁻¹ s⁻¹. Further, the Kd in assay [4] stood at 127 nM.

B10: IGF2R domain 11^AB3 (receptor)
chain: B1 chain with E37K, K38S, L40V
notes: His6-tagged soluble domain 11; also called domain 11^E1544K, K1545S, L1547V; 1542YSKSGV1547
On to B10, for which the Kd in [1] stood at 15.3 nM; in assay [2], 15.5 nM; in [7], 15.3 nM; in [3] it was 11.8 nM; in assay [8], 15.5 nM; in assay [4] it was 15.5 nM. In [5], this molecule came in with a Kd of 15.3 nM. Further, the koff was found to be 0.044 s⁻¹ in assay [1], 0.044 s⁻¹ in assay [7], 0.0381 s⁻¹ in assay [3] and 0.044 s⁻¹ in [5]. Also, the kon in assay [1] was determined as 2.76e+06 M⁻¹ s⁻¹; in [7] it was 2.76e+06 M⁻¹ s⁻¹; in assay [3] it was 3.43e+06 M⁻¹ s⁻¹; in assay [5], 2.76e+06 M⁻¹ s⁻¹.

B11: domain 11^AB3 P1597K (receptor)
chain: B1 chain with E37K, K38S, L40V, P90K
notes: See m5
On to B11, for which, in [6], the “fold change of KD against domain 11^AB3” value turned out to be 6 fold and the “fold reduction of koff against domain 11^AB3” value stood at 2 fold. For the same molecule, in [7], the Kd was 2.78 nM, the koff turned out to be 0.0287 s⁻¹ and the kon was found to be 1.05e+07 M⁻¹ s⁻¹. Binding in assay [8] was characterised by a dissociation constant (Kd) of 3.59 nM.

B12: Fc-domain 11^I1572A fusion protein (Fc fusion)
chain: NEHDDCQVTNPSTGHLFDLSSLSGRAGFTAAYSEKGLVYMSICGENENCPPGVGACFGQTRASVGKANKRLRYVDQVLQLVYKDGSPCPSKSGLSYKSVISFVCRPEAGPTNRPMLISLDKQTCTLFFSWHTPLACEQAT
notes: not shown: human IgG Fc
In the assay with pro-IGF2^1-156, B12 registered a Kd of 2.71 nM, a koff of 0.0008 s⁻¹ and a kon of 290000 M⁻¹ s⁻¹. For the same molecule, in the assay with pro-IGF2^1-104, binding was characterised by a dissociation constant (Kd) of 4.41 nM, the koff is 0.002 s⁻¹ and the on-rate (kon) came out at 520000 M⁻¹ s⁻¹.
